Data: patent WO2021065846A1 (dated 2021)
Where a chain is given by its changes, count along the chain named.

Columns and labels:
[1] = target: T1, anti-HIV-1 V3 antibody 1C10 (0.5γ); experiment: SPR, Biacore T200, biotinylated 1C10 on SA chip, anti-idiotype antibody as analyte
T1 construct: Used as whole bivalent IgG; also called anti-V3 antibody 1C10; 1C10-biotin

[2] = target: T1, anti-HIV-1 V3 antibody 1C10 (0.5γ); experiment: inhibition ELISA: biotinylated 1C10 on NNT20 V3 peptide
[3] = target: T1, anti-HIV-1 V3 antibody 1C10 (0.5γ); experiment: sandwich ELISA: Fab #92 coated as capture, 1C10, biotinylated IgG #87 as detection

T1 sequence (VH, as listed by the source, chain 1 of 2): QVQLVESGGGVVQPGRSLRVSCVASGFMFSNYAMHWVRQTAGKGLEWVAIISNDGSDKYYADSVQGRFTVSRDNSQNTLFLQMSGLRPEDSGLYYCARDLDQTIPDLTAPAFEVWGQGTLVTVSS
T1 sequence (VL, as listed by the source, chain 2 of 2): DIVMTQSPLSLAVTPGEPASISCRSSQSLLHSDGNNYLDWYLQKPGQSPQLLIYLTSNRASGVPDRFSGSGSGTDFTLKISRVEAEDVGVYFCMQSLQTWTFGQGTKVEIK

B1: anti-1C10 idiotype antibody #87 (IgG) (antibody, V domains shown)
VH: QVQLVETGGGLVRPGNSLKLSCVTSGFTFSTYRMHWLRQPPGKRLEWIAVITVKSDGYGANYAQSLKDRFTISRDDSKSSVFLQMNRLREEDTATYYCSRGPDFYGSTYWYFDVWGAGTT
VL: DIVMTQSPSSLDVSVGEKVSMSCKSSQSLLYRSNQKNYLAWYQQKPGQSPRLLIYWASTRESGVPDRFTGSGSGTDFTLTISSVKAEDLAVYYCQQYYSYSTFGAGTKVELK
notes: Mouse variable regions cloned into human IgG expression vectors (pIgGH, pKVA2); Biotinylated where used as detection antibody; also called clone #87; IgG#87
Kd [1]: 0.0343 nM

B2: anti-1C10 idiotype antibody #102 (IgG) (antibody, V domains shown)
VH: EVKLLESGGGLVQPGISLKLSCAASGFDFTRDWMSWVRQAPGKGLEWIGEINPDSSAINYTPSLRDKFIISRDNAKNTLYLQMSKVRSEDTALYYCARRGYYGYYLDYWGQGTTLTVSS
VL: B1 VL with D12A, S20T, L30F, Y31F, R51K, R60G, S101P, A105G, V109L, L111I
notes: Mouse variable regions cloned into human IgG expression vectors (pIgGH, pKVA2)
binding result [2]: binds

B3: Fab of anti-1C10 idiotype antibody #92 (Fab, V domains shown)
VH: QVQLQQSGAELAKPGASVKMSCKASGYTFTNYWMHWVKQRPGQGLEWIGFINPNTDYTEYNQKFTDKATLTADKSSNTAYMQLSSLTSEDSALYYCAREDTWFAYWGQGTLVTVSA
VL: DIQMTQSPASLSASVGETVTITCRASENIYSYLAWYQQKQGKSPQLLVYNAKALAEGVPSRFSGSGSGTQFSLKINSLQPEDFGSYYCQHHYRTPYAFGGGTKLEIK
notes: VH cloned into a Fab heavy chain expression vector, co-expressed with the light chain vector, purified on His60 Ni resin; also called Fab#92; #92Fab
binding result [3]: binds

B4: anti-1C10 idiotype antibody #92 (IgG) (antibody, V domains shown)
VH: B3 VH
VL: B3 VL
notes: Mouse variable regions cloned into human IgG expression vectors (pIgGH, pKVA2); also called clone #92; IgG#92
binding result [2]: binds
